Results on one molecule are retold here after patent US5747334.

No end group written: not given here.

Assay [1] has as its target 7E11-C5 monoclonal antibody. The experiment in a line: competitive ELISA, LNCaP extract on plate. In general terms: In an ELISA, binding on a coated surface is turned into a signal by an enzyme label.
Assay [2] deals with 7E11-C5 monoclonal antibody. The experiment in a line: competitive ELISA, peptide 1.75-1130 nM pre-incubated with 7E11-C5 at 30 ng/ml (0.2 nM), LNCaP extract on plate.

B1: peptide SEQ ID NO 31 (amide form) (peptide)
peptide: LYANPGMYSRLHSPA-NH2
The IC50 is the concentration that gives 50% inhibition. A lower IC50 goes with greater potency in that assay. Turning to B1, in assay [1], the molar ratio of peptide to monovalent binding site on the antibody at the IC50 is 400. The IC50 in assay [2] was determined as 160 nM.
